Measurements as given in IntAct's records for PubMed 23804756.

B1: MIF4G domain-containing protein (Homo sapiens), A9UHW6 (parent)
chain: MGEPSREEYKIQSFDAETQQLLKTALKDPGAVDLEKVANVIVDHSLQDCVFSKEAGRMCYAIIQAESKQAGQSVFRRGLLNRLQQEYQAREQLRARSLQGWVCYVTFICNIFDYLRVNNMPMMALVNPVYDCLFRLAQPDSLSKEEEVDCLVLQLHRVGEQLEKMNGQRMDELFVLIRDGFLLPTGLSSLAQLLLLEIIEFRAAGWKTTPAAHKYYYSEVSD

Variants of: B1
Settings: with slbp_human SLBP

Row | effect of a mutation on the interaction | Variant
1 | decreasing interaction strength | R77A;N81A;Q84A
